{"source": "patent US20110117206A1", "about": "“PHOSPHOPEPTIDES AND USE OF THE SAME” (PLANT BIOSCIENCE LIMITED, priority 2008, published 2011)", "key": {"[1]": {"assay": "SAXS of free OPN and OPN 1-149 (Guinier, worm-like chain model)", "format": "physicochemical", "experimental": "In a SAXS experiment, wherein measurements were made on station 2.1 at the CCLRC Daresbury Laboratory, the normalised scattered intensity I(q) was measured. For a dispersion of isotropic, monodisperse particles, I(q) is related to the inter-particle structure factor, S(q) and the particle scattering factor P(q) by\nwhere N is the number of particles of mean excess scattering length density over the solvent Δ ρp, volume Vp and mass M. The scattering wave vector is q=4π sin θ/λo, where θ is half the scattering angle and λo is the wavelength of the X-rays. In a dilute solution where S(q)=1 and a fraction α′ of the peptide chains have formed a polydisperse distribution of nanoclusters, equation (22) becomes\nThe molar volumes of the unphosphorylated residues were taken from Jacrot and Zaccai (Jacrot, B. & Zaccai, G. (1981). Determination of Molecular-Weight by Neutron-Scattering. Biopolymers 20, 2413-2426). The molar volume of ortho-L-phosphoserine was calculated from the unit cell volume of the amino acid, as determined by Sundaralingam (Sundaralingam, M. & Putkey, E. F. (1970). Molecular structures of amino acids and peptides. II. A redetermination of the crystal structure of L-O-serine phosphate. A very short phosphate-carboxyl hydrogen bond. Acta Crystallographica B26, 790-800) and 11 Å^3 subtracted to give the residue volume of 168.7 Å^3. The difference in residue volumes of serine and phosphoserine was then used to calculate a residue volume for phosphothreonine of 191.7 Å^3. The X-ray forward scattering amplitudes of the residues were calculated from the elemental compositions using atomic scattering factors. For OPN 16P 1-149 and OPN 28P 1-262, the scattering length densities in units of […] were calculated to be 12.56 and 12.48, respectively. For the nanoclusters prepared with OPN 16P 1-149 it was assumed that the phosphate moieties of the 10 phosphorylated residues found in the three PCs, were assigned to the core, giving ρshell=12.40×10^10 cm^−2. For the core, a hydrated CaP with the composition given by equation (2) gave ρcore=19.1×10^10 cm^−2. Radii of gyration of the whole protein and N-terminal polypeptide were independent of concentration in the range 5-15 mg ml^−1. For OPN the average of three determinations by the Guinier method was 5.50±0.17 nm and the corresponding value for OPN 1-149 was 2.17±0.24 nm. For OPN with 262 residues, equation (28) predicts a radius of gyration of 5.38 nm and for the N-terminal plasmin peptide of 149 residues, the predicted value is 3.84 nm.\nRandom-coil behavior and the dimensions of chemically unfolded proteins. Proceedings of the National Academy of Sciences of the United States of America 101, 12491-12496). […]"}, "[2]": {"assay": "Ca2+ binding isotherm (Ca ion selective electrode) fitted with semi-empirical binding model", "details": "from isotherm fit", "excerpt": "To model the chemical species in the OPN 1-149 nanocluster solution requires the calculation of Ca ion binding to the free peptide at any pH in the range 5.0-8.0. A semi-empirical model was used to describe the binding isotherms obtained previously for the β-casein 1-25 phosphopeptide in this pH range and the same model was adapted to fit the binding isotherm of OPN 1-149 measured at pH 7.0. The rescaled model was then used to predict binding at any other value of the pH. Binding of Ca ions to the β-casein 1-25 peptide is predominantly to 4 phosphorylated residues and, to a lesser extent, to 7 Glu residues and the C-terminus.\nFitting of the experimental isotherms was done to an equation of the form\nwhere the summation is over all binding sites with Ca ion association constants Ka,i. The function Ni(pH) describes the number of sites of type i as a function of pH and φi is the degree of phosphorylation. It was assumed, that all the phosphorylated sites had the average degree of phosphorylation φ. The number of dianionic phosphoseryl sites at a given pH is given by\nThe binding behaviour of β-casein has shown that one Ca ion is bound much more strongly than the rest, so the model for binding to the phosphate dianionic groups allowed for two pKs and two Ca ion association constants. The phosphorylated sites have a reduced affinity for Ca ions when they become protonated and were treated as having the same low affinity as the carboxyl groups. […]\nThe Ca^2+ binding isotherm of peptides recovered from fraction F3a was determined by measuring the concentration of free Ca ions with a Ca ion selective electrode after successive small additions of a stock solution of 100 mM Ca(NO3)2 to a solution containing 25 mg ml^−1 of F3a, buffered to pH 7.0 with 20 mM P, and 50 mM KNO3. […] The calculated OPN 1-149 isotherm was obtained by a separate fitting of the single isotherm employing a model with two pKs and association constants but keeping as many as possible of the constants from the casein model."}, "[3]": {"assay": "Fetuin A / casein phosphopeptide mixed nanoclusters, dynamic light scattering", "format": "physicochemical", "details": "66.4 mg ml^−1, Mg-free Buffer A, urea/urease method", "experimental": "Fetuin A was purchased from Sigma Aldrich as product no. F3004. […] The inventors determined the precipitation problem was much reduced at lower fetuin A concentrations so an approach was adopted in which mixed nanoclusters were prepared with casein phosphopeptides and a variable concentration of the fetuin A to recover the size of the fetuin nanoclusters by an extrapolation procedure from lower concentrations. The casein phosphopeptide mixture was supplied by Arla Ltd, Denmark as product Lacprodan 2090 (Na salt). […] The intensity weighted normalised distribution curves calculated by Laplace transformation of the correlation functions of the 6 samples, offset vertically for clarity (FIG. 18a) indicate a nanocluster peak of about 6 nm in accordance with previous work, but as the fetuin A concentration increased, a second peak became increasingly important at larger size. […] Although difficult to estimate exactly, on the basis of scattering by homogeneous spherical particles, the weight fraction of aggregated material in these experiments was calculated to be less than 1% in all cases. […]"}}, "note": "Ends that are not written are not given here.", "data": [{"substance": "OPN: full length native bovine milk osteopontin, gel filtration fraction F2", "values": [{"measurement": "Kuhn length from the worm-like chain model", "setting": "[1]; fit of SAXS", "result": "1.74±0.14", "unit": "nm"}, {"measurement": "radius of gyration by the Guinier method", "setting": "[1]; free peptide, 5-15 mg ml^−1, average of three determinations", "result": "5.50±0.17", "unit": "nm"}, {"measurement": "Kuhn segment length b from equation (24)", "setting": "[1]; from radius of gyration", "result": 1.9, "unit": "nm"}]}, {"substance": "β-casein 1-25: 25 residue N-terminal bovine β-casein tryptic phosphopeptide (RELEELNVPGEIVESLSSSEESITR; also: phosphopeptide (4P), sites not given here; UniProt P02666 16-40, looked up, fragment)", "values": [{"measurement": "effective pK of the isolated Pse residue", "setting": "[2]", "result": 6.0}, {"measurement": "pK of the cluster of three Pse residues", "setting": "[2]", "result": 7.2}]}, {"substance": "Fetuin A: purchased from Sigma Aldrich, product no. F3004, purity about 80-90%", "values": [{"measurement": "nanocluster preparation with fetuin A alone", "setting": "[3]", "result": "a fraction of the product precipitated"}]}]}
